The nanobody polyreactivity screen of Harvey et al. (2022)

Test: yeast display, Sf9 membrane polyspecificity reagent, FACS + sequencing; frameworks hold sequencing errors
How it was run: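 A nanobody's polyreactivity label depends on the gate it was sorted from. Yeast display cells were stained with 10% biotinylated, detergent-solubilized Sf9 membrane reagent for 1 hour at 4 °C, enriched on streptavidin microbeads and sorted by FACS. The low and high (top ~1%) gates were set on anti-HA fluorescence for expression and streptavidin fluorescence for reagent binding.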

| Sequence | polyreactivity (PSR sort gate) |
| --- | --- |
| QVQLGESGGGLVQAGGSLRLSCAASGRTLSYYARGWYRHAPGKEREFVAAITGSGGSTYYADSVKGRFTISRDNAKNTVYLQMHSLQPADTAVYYCNAKGLGVFTVEYYYWGQGTQVTVSS | low polyreactivity |
| QVQLVESGAGLVQAGGSLRLSCAASGSIFPRYAMGWYRQAPWTERELVAAITNGGSTDYADSVKGRFTISRDNAKNTVYLQMNSLKPEDTAVYYCAADLAVGIYPEDGEYWGQGTQVTVSS | low polyreactivity |
| QVQLVESGGGIDKAGGSLRLSCAPSGGIFIRYAMGWYRQAPGKERELVAGIDSGGGTKYADSVKGRFTISRDNAKNTVYLQMNSLKPEDTAVYYCNGEVSVWPFSYDYWGQGTQVTVSS | low polyreactivity |
| QVQLGESGGGLVQAGGSLRLSCAASGSTFNRYAMGWYIQAPGKERELVAAITVRGNTYYADSVKGRFTISRDNAKNTVDVQMNSVKPEDTAVYYCNAVSASPSYVYRPYFKRGYWGQGTQGTVSS | high polyreactivity |
| QVQLVESGGGLGQAGGSLRLSCAASGSIFYSYAMGWYRQAPGKDRELVADISSDGSTNYADSVKGRFTISRDNAKNTVFLQMNSLKPEDTAVYYCAKKPSSARYVTIGFDYWGQGTQVTVSS | low polyreactivity |
| QVQLVESGGGLVQAGGSLRLSCAASGSIFVDYAMGWYRQAPGKERELVAAITWRGDTTYYADSVKGRFTISRDNAKNTFYLQMNSLKPEDTAVYYCAAADPVGGEYWGQGTQVTVSS | low polyreactivity |
| QVQLVESGGGLVQAGGSLRLSCAASGSTFFSNAMGWYRQAPGKERELVATIRFGGGSTYADSVKGRFTISRDNAKNTVYLQMNSLIPEDTAVYYCAADDSDKRYTRSWYGYWGQGTQVTVSS | low polyreactivity |
| QVQLVESGGGLVQAGGSLRLSCAASGIIFRPYAMGWYRQAPGKERELVAAITGSGVSTYYADSVKGRFTISRDNAKNTVYLQMNCQKPEDTAVYYCAKRYNRGYHRYDYWGQGTQVTVSS | low polyreactivity |
| QVQLVESGGGLVQAGGSLRVSCAASGSIFSLYTMGWYRQAPGKERELVAAISGSGGRTYYADSVKGRFTISRDNAKNTVYLQMNSLKPEDTAVYYCAADTRSYTYYYWGQGTQVTVSS | high polyreactivity |
| QVQLVESGGGLVQAGGSLRLSCAASGRTFGSNAMGWYRQAPGKERELVAAITKSGGGTYYADSVKGRFTISRDNAKNTVYLQMNSLKPEDTAVYYCAARRYARSGGALYPYDYWGQGSQVTVSS | high polyreactivity |
| QVQLVESGGGLVQAGGSLRLSCAASGSTSSVYAMGWYRQAPGKEREFVASITRRTGITFYADSVKGRFTISRDNAKNTVYLQMNSLKPEDTAVYYCATRGGYPKGYGYLAFNYWGQGTQVTVSS | high polyreactivity |
| QVQLVESGGGLVQAGGSLRLSCAASGFIFGRNAMGWYRQAPGKEREFVAAITRIGGNTYYADSVKGRFTISRDNAKNTVYLQMNSLKPEDTAVYYCAARLSYFHAYGFYWGQGTQVTVSS | high polyreactivity |
| QVQLVESGVGLVQAGGSLRLSCAASGITFDYYAMGLYRQAPGKERELVAAIRKSGGSTYYADSVKGRFTISRDNAKNTVYLQMNSLKPEDTAVYYCAAGVRSPFRGGYYWGQGTQVTVSS | high polyreactivity |
| QVQLVDSGGGLVQAGGSLRLSCHASGRIVTSNAMGWYRQAPGKERELVAAISWSGGSTYYADSVKGRFTISRDNAKNTVYLQINSLKPEDTAVYYCAAYGTKWGRGFYITGYGYWGQGTQVTVSS | low polyreactivity |
| QVQLVESGGGLVQAGGSLRLSCAASGSIISRNAMGWYRQAPGKEREFVAAITRSGGSTSYADSVKGRFTISRDNAKNTVYLQMNSLKPEDTAVYYCSASFARSATAYLFDYWGQGTQVTVSS | high polyreactivity |
| QVQLVESGGGLVQAGGSLRLSCAASGRIFYYYAMGWYRQAPGKERELVAGISSGSSTNYADSVKGRFTISRDNAKNTVYLQMNSLKPEDTAVYYCAAYPYFSVAANDDYWGQGTQVTVSS | low polyreactivity |
| QVQLVESGGGLVQAGGSLRLSCAASGYIFGYNAMGWYRQAAGQERELVAAITYSGGNTYYADSVKGRFTISRDNANNTVYLQMNSLKPEDTAVYYCAADFLYGAEGNEYWGQGTQVTVSS | high polyreactivity |
| QVQLVESGGGLVQAGGSLRLTCAASGRTFGVYAMGWYRQAPGKERELVADITSGGGTYYADSVKGRFTILRDNAKNTVYLQMNSLKPEDTAVYYCAARKWYYAYEYWGQGTQVTVSS | high polyreactivity |
| QVQLVESGGGLVQAGGSLRLSCAASGITFLYYAMGWYRQAPGKERELVAGISGTGGRTYYADSVKGRFTISRDNAKNTVYLQMNSLKPEDTAVYYCAARRTTWGYGYWGQGTQVTVSS | high polyreactivity |
| QVQLVESGGGLVQAGGSLRLSCAASGSTFRRNAMGWYRQAPGKERELVAAITWRGTSTYYADSVKGRFTISRDNAKNTVYLQMNSLKPEDTAVYYCAADRFVRYWGQGTQVTVSS | high polyreactivity |
| QVQLVESGGGLVQAGGSLRLICAASGRTSYIDAMGWYREAPGKERELVARIRSGGSTNYADSVKGRFTISRDNAKNPVYVQMNSLKPEDTAVYYCNADFAFSRKYQANPYSAYDYWGQGTQVTVSS | high polyreactivity |
| QVQLVESGGCLVQAGGSLRLSCAASGSIIGLYPMGWSRQAPGKERELVAAITQSAGSTYYADSVKGRFTISRDNALNTVFLQMNSLKPEDTAVYYCAAVWAYYGYESDYWGQGTQVTVSS | low polyreactivity |

| Sequence | polyreactivity (PSR sort gate) |
| --- | --- |
| QVQLVESGGGLVQAGGSLRLSSAASGSTFQIYTMGWSRQAPGKESELVAAITNGGGSTYYADSVKGRFTISRDNAKNTVYLQMNSLKPEDTAVYYCAAEQRYPLIILYDDWGQGTQVTVSS | low polyreactivity |
| QVQLVESGGGLVQAGGSLRLSCAASGRTFYHYTMGWYRQAPGKARELVAAITSGGSTYYADSVKGRFTISRDYAKNTVYLQMNSLKPEDTAVYYCARVRPLYHFSRYDDCGQGTQVTVSS | high polyreactivity |
| QVQLVESGGGLVQAGGSLSLSWAASGFIFRLYAMGWYRQAPGKERELVSGITQRGGRTYYADSLKGRFTISRDNANNTVYLQMNSLKPEDTAVYYCAADRCEYVYWGQGTQVTVSS | high polyreactivity |
| QVQLVESGGGLVQAGGSLRLSCAASGFTFLKNAMGWYRQAPGKERELVAAITSSGGRTYYADSVKGRFTISRDNAKYTVYLQMNSLKPEDTAVYYCNKGPLPGYDYWGQGNQVTVSS | high polyreactivity |
| QVQLVESGGGLVQAGGSLRLTCAASGSTLYVYPMGWYRPAPGKERELVASINSGGSTNYADSVKGRFSISRDNAKNTVYLQMNSLKRVDTAVYYCNAEYYGWFHHYDYWGQGTQVTVSS | high polyreactivity |
| QVQLVESGGGLVQAGGSLRLSCAASGFTFGRYAMGWYRQATGKERELVAAITWSGGSTHYADSVKGRFTISRDNAKNTVYLQMNSLKPEDTAVYYCAVRVIYWSGSQVSVEYYYWGQGTQVTVSS | low polyreactivity |
| QVQLVESGGGLVQAGGSLRLSCAASGITFRFNAMGWYRQAPGKERELVAAITSSGGRTYYADSVKGRFTISRDNAKNTVYLQMNSLKPEDTAVYYCNVRRLASYSFPYGYWGQGTQVTVSS | high polyreactivity |
| QVQLVESGGGLVQAGGSLRLSCAASGSIFTYYAMGWYRQAPGKERELVAAISLDGGSTYYADSVKGRFTISRDNAKNTVYLQMNSLKPEDTAVYYCAAYPTYPDEYWGQGTQVTVSS | low polyreactivity |
| QVQLVETGGGLVQAGGSLRLSCAASGSTFGINAMGWYRQAPGKERELVAAITASGCRTYYADSVKGRFTISRDNAKNTVYLQMNSLKPEDNAVYYCAARGTYYRRYDYWGQGTQVTVSS | low polyreactivity |
| QDQLVESGGGLVQAGGSLRLSCAASGSTFWANAMGWYRQAPGKEWELDARITYSGGSTYYADSVKGRFTISRDYAKNTVYLQMNSLKPEDTAVYYCAAEHYLCYDYWGQGTQVTVSS | low polyreactivity |
| QVQLVESGGGLVQAGGSLRLSCAASGRTFAVYAMGWYRQAPGKERELVATINGGGNTNYADSVKGRFTISRDNAKNTVYLQMNSLKPVDTAVYYCAADAWDHWTWFYPTNGMDYWGQGTQVTVSS | low polyreactivity |
| QVQLVESGGGLVQAGGRLRLSCAASGSTFRVYAMGWYRQAPGKERELFAAIRSGGGTNYADSVKGRFTISRDNAKNTVYLQMNSLKPEDTAVYYCAREAATDISPGYDYWGQGTQVTVSS | low polyreactivity |
| QVQLVESGGGLVQAGGSLRLICAASGRIYRYYAMGWYRQAPGKERELVAAITSDGRTYYADSVKGRFTISRDNAKNTVYLQMNSLKPEDTAVYYCAADHHSYRYGGYYYWGQGTQVTVSS | low polyreactivity |
| QDQLVESGGGLVQAGGSLRLSCAASGSIFRYYVRGWYREAPGKERELVAAISKSGGSTYYADSVKGRFTISRDNAKNTVYLQMNSLKPEDTAVYYCAAGNTRGGDFNYWGQGTQVTVSS | high polyreactivity |
| QVQRVESGGGLVQAGGRLRLSCAASASTLYSYAMGWNRQAPGKEREFVATISQIGVRTYYADSVKGRFTISRDNAKNTVYLQMNSLKPEDTAVYYCAAGYRFTTYLVYNYWGQGTQVTVSS | high polyreactivity |
| QVQLVESGGGLVQAGGSLRLSCAASGRISHYNAMGWYRQAPGKERELVAAISSRGGSTYYADSVKGRFTISRDIAKNTVYLQMNSLKPEDTAVYYCADTAGYWGQGTQVTVSS | high polyreactivity |
| QVQLVESGGGLVQAGGSLRLSCAASGSIFVPYAMGWYRQAPGKERELVAAISRRGGRTNYADSVKGRFTISRDNAKNTVYLQMNSLKPEDTAVYYCAKYPIYYGLTRYGYWGHGTQVTVSS | high polyreactivity |
| QVKLVESGGALVQAGGSLRLSCPASGRTFGQTAMGWYRQAPGKERELVAAITWSDDDTYYADSVKGRFTISRDNAKNTVYLQMNSLKPEDTAVYYCAATYPYRQYDYWGQGTQVTVSS | low polyreactivity |
| QVQLVESGGGLVQAGGSLRLSCAASGRIFYDYTMGWYRQAPGKERELVAAINSGGGSTYYADSVKGRFTISRDNAKITVYLQMNSLKPEDTAVYYCNADGQWNIWEYDYWGQGTQVTVSS | high polyreactivity |
| QVQLVESGGGLVQAGGSLRLSAASGSTLAGNTMGWYRQAPGKERELVAAINDSGGSTYYADSVKGRFTISRDNAKNTVYLQMNSLKPEETAVYYCNADGSAYIEDGYDYWGQGTQVTVSS | low polyreactivity |
| QVQLVESGGGLVQAGGSLRLSCAASGFIFDDYAMGWYRQAPGKERELVAAISVSSTNYADSVKGRFTISRDNAKNTVYLQMNSLKPEDTAVYYCAADTYTYFLASYLYGQYDYWGQGTQVTVSS | low polyreactivity |
